Measurements: patent US5877275A, “Controlling cellular immune/inflammatory responses with β2 integrins” (The General Hospital Corporation, priority 1995, dated 1999)

Target: iC3b (Homo sapiens, UniProt P01024)
Experiment: Binding of soluble heterodimer / wild-type receptor to iC3b-sepharose (elution, SDS-PAGE, autoradiography)
Conditions: detergent soluble fraction of 125I-surface-labelled neutrophils, immunoprecipitated with 44a mAb from eluate
Experimental: CD11b^1089 /CD18^699 was next tested for its ability to bind iC3b (the receptor bound by wild-type CD11b/CD18). Briefly, COS cells were transfected CD11b^1089 and CD18^699 cDNA as described above. Cells were labeled with ^35 S-methionine as described by Dana et al., J. Clin. Invest. 79:1010 (1987). Supernatants from both co-transfected COS cells (7×10^6 cells) and mock-transfected COS cells (7×10^6 cells) were concentrated to one ml using collodion bags (10,000 MW cut off). 100 μl of the concentrated supernatant were used for immunoprecipitation, and the rest of the supernatant was incubated with C3b-sepharose or iC3b-sepharose. C3b-sepharose and iC3b-sepharose was washed, eluted with 0.4 M NaCl and the eluted proteins were analyzed by SDS-PAGE and autoradiography. Binding of wild-type, membrane-bound CD11b/CD18 to iC3b-sepharose or C3b-sepharose was performed as described by Arnaout et al., (In Methods in Enzymology, DiSabato, Ed., Acad. Press Inc., Fla., 1987) using the detergent soluble fraction from 1×10^8 125 I-surface-labelled neutrophils.
FIG. 3 illustrates the results of SDS-PAGE analysis of neutrophil-derived ^125 I-surface-labeled glycoproteins eluted from C3b-sepharose and iC3b-sepharose. Eluants from C3b-sepharose (lane a) contained complement receptor type 1 (250kD) and the C3-binding regulatory protein gp45/70 (45-70 kD). […]

Sequence of iC3b (P01024 23-667 limits assumed): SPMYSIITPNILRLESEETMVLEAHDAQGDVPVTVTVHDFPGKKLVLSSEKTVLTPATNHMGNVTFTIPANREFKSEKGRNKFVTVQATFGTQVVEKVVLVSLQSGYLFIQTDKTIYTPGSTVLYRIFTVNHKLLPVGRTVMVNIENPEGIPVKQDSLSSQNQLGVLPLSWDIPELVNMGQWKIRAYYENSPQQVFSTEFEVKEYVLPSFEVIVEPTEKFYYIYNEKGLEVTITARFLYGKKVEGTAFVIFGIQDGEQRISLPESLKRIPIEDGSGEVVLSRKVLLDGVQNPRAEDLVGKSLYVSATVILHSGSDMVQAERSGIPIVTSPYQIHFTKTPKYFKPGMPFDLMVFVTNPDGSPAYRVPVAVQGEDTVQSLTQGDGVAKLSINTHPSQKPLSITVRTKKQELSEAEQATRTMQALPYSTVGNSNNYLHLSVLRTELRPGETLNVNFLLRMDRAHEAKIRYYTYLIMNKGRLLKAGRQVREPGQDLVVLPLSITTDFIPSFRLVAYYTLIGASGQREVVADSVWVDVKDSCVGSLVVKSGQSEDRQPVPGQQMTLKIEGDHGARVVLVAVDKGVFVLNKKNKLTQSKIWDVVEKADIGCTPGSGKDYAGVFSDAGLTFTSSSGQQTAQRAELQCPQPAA
Sequence of iC3b (P01024 749-954 limits assumed): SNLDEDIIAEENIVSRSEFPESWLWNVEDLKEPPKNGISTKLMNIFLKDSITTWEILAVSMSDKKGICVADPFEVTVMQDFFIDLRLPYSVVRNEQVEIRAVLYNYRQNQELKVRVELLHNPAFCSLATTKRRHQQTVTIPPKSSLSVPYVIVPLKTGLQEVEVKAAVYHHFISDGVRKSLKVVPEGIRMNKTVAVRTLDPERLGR
Sequence of iC3b (P01024 955-1303 limits assumed): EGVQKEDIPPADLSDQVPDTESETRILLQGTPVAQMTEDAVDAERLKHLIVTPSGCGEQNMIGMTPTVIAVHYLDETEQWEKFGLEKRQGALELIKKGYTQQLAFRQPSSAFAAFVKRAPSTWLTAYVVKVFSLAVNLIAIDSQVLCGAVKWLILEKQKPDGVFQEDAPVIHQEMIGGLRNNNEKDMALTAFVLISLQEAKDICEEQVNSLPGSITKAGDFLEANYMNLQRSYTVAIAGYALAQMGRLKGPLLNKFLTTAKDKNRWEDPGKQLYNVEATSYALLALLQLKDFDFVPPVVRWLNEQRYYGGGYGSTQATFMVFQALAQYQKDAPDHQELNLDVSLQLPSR
Sequence of iC3b (P01024 1321-1663 limits assumed): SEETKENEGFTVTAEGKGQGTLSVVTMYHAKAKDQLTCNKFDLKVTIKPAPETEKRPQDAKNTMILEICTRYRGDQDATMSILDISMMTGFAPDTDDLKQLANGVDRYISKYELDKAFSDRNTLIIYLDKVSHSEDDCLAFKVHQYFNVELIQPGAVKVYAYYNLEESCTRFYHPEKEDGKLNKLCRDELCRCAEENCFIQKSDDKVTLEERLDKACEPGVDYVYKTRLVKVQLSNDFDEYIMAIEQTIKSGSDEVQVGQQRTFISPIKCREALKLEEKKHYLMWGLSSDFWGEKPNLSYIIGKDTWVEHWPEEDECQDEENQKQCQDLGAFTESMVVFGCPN

binding to iC3b-sepharose: eluted from iC3b-sepharose
Substance: CD11b/CD18: wild-type, membrane-bound CD11b/CD18 from surface-labelled neutrophils
